# ± gives the standard error. For some assays here: Fewer inactive variants are shown than the library holds.
# B1: glmS ribozyme (parent)
# chain: AUAAAAGCGCCAGAACUACAGAAAUGUAGUUGACGAGGAGGAGGUUUAUCGAAUUUUCGGCGGAUGCCUCCAAA
# Key:
# Conditions in all cases: with glucosamine-6-phosphate
# glucosamine-6-phosphate [1] = variants of: B1; test: kcat; higher = faster cleavage; RNA array
# How it was run: (§1)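 Weighted Michaelis–Menten fits across concentrations supplied kcat and KM, based on kobs from one- or two-exponential decay fits to normalised per-tile medians. The data came from barcoded ribozyme variants transcribed in situ by E. coli RNA polymerase on sequenced MiSeq chips and tracked at 37 °C by a hybridised Cy3 probe. Glucosamine-6-phosphate (40 μM to 10 mM) in HEPES/KCl/Mg(OAc)2 buffer was flowed in.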
# glucosamine-6-phosphate [2] = variants of: B1; test: KM; higher = weaker cofactor use; RNA array
# How it was run: as §1
# glucosamine-6-phosphate [3] = variants of: B1; test: self-cleavage kobs at 160 uM GlcN6P; higher = faster cleavage; RNA array
# How it was run: as §1
# glucosamine-6-phosphate [4] = variants of: B1; test: self-cleavage kobs at 640 uM GlcN6P; higher = faster cleavage; RNA array
# How it was run: as §1
# glucosamine-6-phosphate [5] = variants of: B1; test: self-cleavage kobs at 2500 uM GlcN6P; higher = faster cleavage; RNA array
# How it was run: as §1
# glucosamine-6-phosphate [6] = variants of: B1; test: self-cleavage kobs at 10000 uM GlcN6P; higher = faster cleavage; RNA array
# How it was run: as §1
# glucosamine-6-phosphate [7] = variants of: B1; test: self-cleavage kobs at 40 uM GlcN6P; higher = faster cleavage; RNA array
# How it was run: as §1
variant,measurement,setting,value
AUAAAAGCGCCAGAGCUACAGAAAUGUAGUUGACGAGGAGGAGGUUUCUCGAAUUUUCGGCGGAUGCCUCCAAA [A15G A48C],kcat,glucosamine-6-phosphate [1],0.000466 ± 1.6e-05 s⁻¹
same,KM,glucosamine-6-phosphate [2],2830 ± 210 µM
same,self-cleavage kobs at 160 uM GlcN6P,glucosamine-6-phosphate [3],2.29e-05 ± 1.1e-05 s⁻¹
same,self-cleavage kobs at 640 uM GlcN6P,glucosamine-6-phosphate [4],9.04e-05 ± 1.7e-05 s⁻¹
same,self-cleavage kobs at 2500 uM GlcN6P,glucosamine-6-phosphate [5],0.000212 ± 3.2e-05 s⁻¹
same,self-cleavage kobs at 10000 uM GlcN6P,glucosamine-6-phosphate [6],0.000365 ± 3.6e-05 s⁻¹
AUAAAAGCGCCAGAGCUACAGAAAUGUAGUUGACGAGGAGGAGGUUUAUUGAAUUUUCGGCGGAUGCCUCCAAA [A15G C50U],kcat,glucosamine-6-phosphate [1],9.75e-05 ± 1.3e-05 s⁻¹
same,KM,glucosamine-6-phosphate [2],2370 ± 1000 µM
same,self-cleavage kobs at 2500 uM GlcN6P,glucosamine-6-phosphate [5],4.52e-05 ± 1.3e-05 s⁻¹
same,self-cleavage kobs at 10000 uM GlcN6P,glucosamine-6-phosphate [6],8.01e-05 ± 1.2e-05 s⁻¹
AUAAAAGCGCCAGAGCUACAGAAAUGUAGUUGACGAGGAGGAGGUUUAUCGAAUUUUCGGAGGAUGCCUCCAAA [A15G C61A],kcat,glucosamine-6-phosphate [1],< 1e-05 s⁻¹
AUAAAAGCGCCAGAGCUACAGAAAUGUAGUUGACGAGGAGGAGGUUUAUCGAAUUUUCGGUGGAUGCCUCCAAA [A15G C61U],kcat,glucosamine-6-phosphate [1],1.94e-05 ± 1e-06 s⁻¹
same,KM,glucosamine-6-phosphate [2],631 ± 280 µM
AUAAAAGCGCCAGAGCUACAGAAAUGUAGUUGACGAGGAGGAGGUUUAUCGAAUUUUCGGCGGCUGCCUCCAAA [A15G A64C],kcat,glucosamine-6-phosphate [1],0.000162 ± 9.6e-06 s⁻¹
same,KM,glucosamine-6-phosphate [2],2040 ± 230 µM
same,self-cleavage kobs at 640 uM GlcN6P,glucosamine-6-phosphate [4],3.75e-05 ± 6.6e-06 s⁻¹
same,self-cleavage kobs at 2500 uM GlcN6P,glucosamine-6-phosphate [5],9.56e-05 ± 1.6e-05 s⁻¹
same,self-cleavage kobs at 10000 uM GlcN6P,glucosamine-6-phosphate [6],0.00013 ± 2.2e-05 s⁻¹
AUAAAAGCGCCAGACCUACAGAAAUGUAGUUGACGAGGAGGAGGUUUAUCGAAUUUACGGCGGAUGCCUCCAAA [A15C U57A],kcat,glucosamine-6-phosphate [1],7.96e-05 ± 6.3e-06 s⁻¹
same,KM,glucosamine-6-phosphate [2],2770 ± 750 µM
same,self-cleavage kobs at 2500 uM GlcN6P,glucosamine-6-phosphate [5],3.94e-05 ± 1.2e-05 s⁻¹
same,self-cleavage kobs at 10000 uM GlcN6P,glucosamine-6-phosphate [6],6.22e-05 ± 8.8e-06 s⁻¹
AUAAAAGCGCCAGAGCUACAGAAAUGUAGUUGACGAGGAGGAGGUUUAUCGAAUUUUCGGCGGAUGCCUGCAAA [A15G C70G],kcat,glucosamine-6-phosphate [1],0.000355 ± 6.5e-05 s⁻¹
same,KM,glucosamine-6-phosphate [2],180 ± 79 µM
same,self-cleavage kobs at 40 uM GlcN6P,glucosamine-6-phosphate [7],8.28e-05 ± 1.3e-05 s⁻¹
same,self-cleavage kobs at 160 uM GlcN6P,glucosamine-6-phosphate [3],0.000137 ± 1.9e-05 s⁻¹
same,self-cleavage kobs at 640 uM GlcN6P,glucosamine-6-phosphate [4],0.000303 ± 2.7e-05 s⁻¹
same,self-cleavage kobs at 10000 uM GlcN6P,glucosamine-6-phosphate [6],0.00033 ± 5.4e-05 s⁻¹
AUAAAAGCGCCAGACCUACAGAAAUGUAGUUGACGAGGAGGAGGUUUAUCGAAUGUUCGGCGGAUGCCUCCAAA [A15C U55G],kcat,glucosamine-6-phosphate [1],0.00196 ± 0.00085 s⁻¹
same,self-cleavage kobs at 40 uM GlcN6P,glucosamine-6-phosphate [7],0.000128 ± 3e-05 s⁻¹
same,self-cleavage kobs at 160 uM GlcN6P,glucosamine-6-phosphate [3],0.000255 ± 4.7e-05 s⁻¹
same,self-cleavage kobs at 2500 uM GlcN6P,glucosamine-6-phosphate [5],0.00118 ± 0.0002 s⁻¹
same,self-cleavage kobs at 10000 uM GlcN6P,glucosamine-6-phosphate [6],0.00334 ± 0.00064 s⁻¹
AUAAAAGCGCCAGAGCUACAGAAAUGUAGUUGACGAGGAGGAGGUUUAUCGAAUUUUCGGCGGAUGGCUCCAAA [A15G C67G],kcat,glucosamine-6-phosphate [1],0.00126 ± 0.0001 s⁻¹
same,KM,glucosamine-6-phosphate [2],2600 ± 330 µM
same,self-cleavage kobs at 160 uM GlcN6P,glucosamine-6-phosphate [3],7.63e-05 ± 1.2e-05 s⁻¹
same,self-cleavage kobs at 640 uM GlcN6P,glucosamine-6-phosphate [4],0.000243 ± 2.4e-05 s⁻¹
same,self-cleavage kobs at 2500 uM GlcN6P,glucosamine-6-phosphate [5],0.000654 ± 6.3e-05 s⁻¹
same,self-cleavage kobs at 10000 uM GlcN6P,glucosamine-6-phosphate [6],0.000966 ± 0.00011 s⁻¹
AUAAAAGCGCCAGAGCUACAGAAAUGUAGUUGACGAGGGGGAGGUUUAUCGAAUUUUCGGCGGAUGCCUCCAAA [A15G A39G],kcat,glucosamine-6-phosphate [1],0.024 ± 0.0095 s⁻¹
same,self-cleavage kobs at 40 uM GlcN6P,glucosamine-6-phosphate [7],0.0013 ± 0.00018 s⁻¹
same,self-cleavage kobs at 160 uM GlcN6P,glucosamine-6-phosphate [3],0.00251 ± 0.00078 s⁻¹
same,self-cleavage kobs at 640 uM GlcN6P,glucosamine-6-phosphate [4],0.0174 ± 0.0035 s⁻¹
same,self-cleavage kobs at 2500 uM GlcN6P,glucosamine-6-phosphate [5],0.037 ± 0.017 s⁻¹
same,self-cleavage kobs at 10000 uM GlcN6P,glucosamine-6-phosphate [6],0.0199 ± 0.0048 s⁻¹
AUAAAAGCGCCAGACCUACAGAAAUGUAGUUGACGAGGAGGAGGUUUAUCGAAUUAUCGGCGCAUGCCUACAAA [A15C U56A G63C C70A],kcat,glucosamine-6-phosphate [1],5.44e-05 ± 1.8e-05 s⁻¹
same,self-cleavage kobs at 160 uM GlcN6P,glucosamine-6-phosphate [3],5.41e-05 ± 2.2e-05 s⁻¹
same,self-cleavage kobs at 2500 uM GlcN6P,glucosamine-6-phosphate [5],7.34e-05 ± 3.6e-05 s⁻¹
AUAAAAGCGCCAGAGGUACAGAAAUGUAGUUGACGAGGAGGAGGUUUAUCGAAUUUUCGGCGGAUGCCUCCAAA [A15G C16G],kcat,glucosamine-6-phosphate [1],0.00525 ± 0.001 s⁻¹
same,KM,glucosamine-6-phosphate [2],2660 ± 820 µM
same,self-cleavage kobs at 40 uM GlcN6P,glucosamine-6-phosphate [7],9.12e-05 ± 2.2e-05 s⁻¹
same,self-cleavage kobs at 160 uM GlcN6P,glucosamine-6-phosphate [3],0.000213 ± 6.8e-05 s⁻¹
same,self-cleavage kobs at 640 uM GlcN6P,glucosamine-6-phosphate [4],0.0011 ± 0.00023 s⁻¹
same,self-cleavage kobs at 2500 uM GlcN6P,glucosamine-6-phosphate [5],0.00326 ± 0.00063 s⁻¹
same,self-cleavage kobs at 10000 uM GlcN6P,glucosamine-6-phosphate [6],0.00391 ± 0.00059 s⁻¹
AUAAAAGCGCCAGACCUACAGAAAUGUAGUUGACGAGGAGGAGGUUUAUCGAAUGUUCGGCGGAUGCCUACAAA [A15C U55G C70A],kcat,glucosamine-6-phosphate [1],4.71e-05 ± 9.2e-06 s⁻¹
same,self-cleavage kobs at 640 uM GlcN6P,glucosamine-6-phosphate [4],5.4e-05 ± 1.4e-05 s⁻¹
same,self-cleavage kobs at 2500 uM GlcN6P,glucosamine-6-phosphate [5],4.46e-05 ± 1.3e-05 s⁻¹
same,self-cleavage kobs at 10000 uM GlcN6P,glucosamine-6-phosphate [6],3.54e-05 ± 1.7e-05 s⁻¹
AUAAAAGCGCCAGAGCUACAGAAAUGUACUUGACGAGGAGGAGGUUUAUCGAAUUUUCGGCGGAUGCCUCCAAA [A15G G29C],kcat,glucosamine-6-phosphate [1],0.00276 ± 0.00064 s⁻¹
same,KM,glucosamine-6-phosphate [2],3540 ± 1400 µM
same,self-cleavage kobs at 40 uM GlcN6P,glucosamine-6-phosphate [7],3.64e-05 ± 1.1e-05 s⁻¹
same,self-cleavage kobs at 160 uM GlcN6P,glucosamine-6-phosphate [3],0.000187 ± 5.3e-05 s⁻¹
same,self-cleavage kobs at 640 uM GlcN6P,glucosamine-6-phosphate [4],0.000327 ± 7.2e-05 s⁻¹
same,self-cleavage kobs at 2500 uM GlcN6P,glucosamine-6-phosphate [5],0.00156 ± 0.00032 s⁻¹
same,self-cleavage kobs at 10000 uM GlcN6P,glucosamine-6-phosphate [6],0.002 ± 0.00023 s⁻¹
AUAAAAGCGCCAGAGCUACAGAAAUGUAGUUGACGUGGAGGAGGUUUAUCGAAUUUUCGGCGGAUGCCUCCAAA [A15G A36U],kcat,glucosamine-6-phosphate [1],< 1e-05 s⁻¹
same,self-cleavage kobs at 160 uM GlcN6P,glucosamine-6-phosphate [3],< 1e-05 s⁻¹
same,self-cleavage kobs at 640 uM GlcN6P,glucosamine-6-phosphate [4],< 1e-05 s⁻¹
AUAAAAGCGCCAGAGCUACAGAAAUGUAGUUGACGAGGAGGCGGUUUAUCGAAUUUUCGGCGGAUGCCUCCAAA [A15G A42C],kcat,glucosamine-6-phosphate [1],1.26e-05 ± 4.1e-06 s⁻¹
same,self-cleavage kobs at 160 uM GlcN6P,glucosamine-6-phosphate [3],< 1e-05 s⁻¹
AUAAAAGCGCCAGAGUUACAGAAAUGUAGUUGACGAGGAGGAGGUUUAUCGAAUUUUCGGCGGAUGCGUCCAAA [A15G C16U C68G],kcat,glucosamine-6-phosphate [1],5.74e-05 ± 2.6e-05 s⁻¹
same,self-cleavage kobs at 640 uM GlcN6P,glucosamine-6-phosphate [4],8.06e-05 ± 1.8e-05 s⁻¹
same,self-cleavage kobs at 2500 uM GlcN6P,glucosamine-6-phosphate [5],8.91e-05 ± 3e-05 s⁻¹
